Test results published in paper PMC1769423, “Different Quaternary Structures of Human RECQ1 Are Associated with Its Dual Enzymatic Activity” (PLoS Biology, 2007).

Legend:
[1] = target: the molecule itself; assay: negative-stain transmission electron microscopy; as a2 but with 2-5 mM ATP or ATPγS, with or without oligo(dT)30
[2] = target: the molecule itself; assay: SEC; Superdex200 HR 10/30, 20 mM Tris pH 7.5, 150 mM KCl, 1 mM DTT; about 40 ug RECQ1 loaded at 1 uM; alone, with oligo(dT)40 or oligo(dT)30 and/or 1 mM ATP or ATPγS in the elution buffer; also 100-500 mM salt and 0.1-35 uM protein

| Protein | binding result [1] | binding result [2] |
| --- | --- | --- |
| RECQ1(K119R) (human RECQ1, ATPase-deficient Walker A mutant) (enzyme, UniProt P46063 1-649, looked up, human RECQ1 helicase (alias RECQL), the 649-amino acid variant, with K119R in ATPase motif I (Walker A box); also called RECQ1 K119R mutant; His6-K119R RECQ1 mutant; source: baculovirus/Sf9 cells, purified; not shown: His6, N-terminal, kept) MASVSALTEELDSITSELHAVEIQIQELTERQQELIQKKKVLTKKIKQCLEDSDAGASNEYDSSPAAWNKEDFPWSGKVKDILQNVFKLEKFRPLQLETINVTMAGKEVFLVMPTGGGRSLCYQLPALCSDGFTLVICPLISLMEDQLMVLKQLGISATMLNASSSKEHVKWVHAEMVNKNSELKLIYVTPEKIAKSKMFMSRLEKAYEARRFTRIAVDEVHCCSQWGHDFRPDYKALGILKRQFPNASLIGLTATATNHVLTDAQKILCIEKCFTFTASFNRPNLYYEVRQKPSNTEDFIEDIVKLINGRYKGQSGIIYCFSQKDSEQVTVSLQNLGIHAGAYHANLEPEDKTTVHRKWSANEIQVVVATVAFGMGIDKPDVRFVIHHSMSKSMENYYQESGRAGRDDMKADCILYYGFGDIFRISSMVVMENVGQQKLYEMVSYCQNISKCRRVLMAQHFDEVWNSEACNKMCDNCCKDSAFERKNITEYCRDLIKILKQAEELNEKLTPLKLIDSWMGKGAAKLRVAGVVAPTLPREDLEKIIAHFLIQQYLKEDYSFTAYATISYLKIGPKANLLNNEAHAITMQVTKSTQNSFRAESSQTCHSEQGDKKMEEKNSGNFQKKAANMLQQSGSKNTGAKKRKIDDA | binds |  |
| untagged RECQ1 (utRECQ1; human RECQ1 helicase after removal of the N-terminal His6-tag) (enzyme, UniProt P46063 1-649, looked up, human RECQ1 helicase (alias RECQL), the 649-amino acid variant; also called untagged wild-type RECQ1; source: baculovirus/Sf9 cells, purified; not shown: His6, N-terminal, cleaved) MASVSALTEELDSITSELHAVEIQIQELTERQQELIQKKKVLTKKIKQCLEDSDAGASNEYDSSPAAWNKEDFPWSGKVKDILQNVFKLEKFRPLQLETINVTMAGKEVFLVMPTGGGKSLCYQLPALCSDGFTLVICPLISLMEDQLMVLKQLGISATMLNASSSKEHVKWVHAEMVNKNSELKLIYVTPEKIAKSKMFMSRLEKAYEARRFTRIAVDEVHCCSQWGHDFRPDYKALGILKRQFPNASLIGLTATATNHVLTDAQKILCIEKCFTFTASFNRPNLYYEVRQKPSNTEDFIEDIVKLINGRYKGQSGIIYCFSQKDSEQVTVSLQNLGIHAGAYHANLEPEDKTTVHRKWSANEIQVVVATVAFGMGIDKPDVRFVIHHSMSKSMENYYQESGRAGRDDMKADCILYYGFGDIFRISSMVVMENVGQQKLYEMVSYCQNISKCRRVLMAQHFDEVWNSEACNKMCDNCCKDSAFERKNITEYCRDLIKILKQAEELNEKLTPLKLIDSWMGKGAAKLRVAGVVAPTLPREDLEKIIAHFLIQQYLKEDYSFTAYATISYLKIGPKANLLNNEAHAITMQVTKSTQNSFRAESSQTCHSEQGDKKMEEKNSGNFQKKAANMLQQSGSKNTGAKKRKIDDA |  | binds |
